Where a chain is given by its changes, count along the chain named.
B1: 10E8v4-P100fA Fab (Fab, V domains shown)
VH: EVRLVESGGGLVKPGGSLRLSCSASGFDFDNAWMTWVRQPPGKGLEWVGRITGPGEGWSVDYAESVKGRFTISRDNTKNTLYLEMNNVRTEDTGYYFCARTGKYYDFWSGYAPGEEYFQDWGQGTLVIVSS
VL: ASELTQDPAVSVALKQTVTITCRGDSLRSHYASWYQKKPGQAPVLLFYGKNNRPSGIPDRFSGSASGNRASLTITGAQAEDEADYYCSSRDKSGSRLSVFGGGTKLTVL
B2: 10E8v4 Fab (Fab, V domains shown)
VH: B1 VH with A112P
VL: SELTQDPAVSVALKQTVTITCRGDSLRSHYASWYQKKPGQAPVLLFYGKNNRPSGIPDRFSGSASGNRASLTITGAQAEDEADYYCSSRDKSGSRLSVFGGGTKLTVL
B3: 10E8v4-P100gA Fab (Fab, V domains shown)
VH: B1 VH with A112P, P113A
VL: B1 VL
B4: 10E8v4-P100fA-P100gA Fab (Fab, V domains shown)
VH: B1 VH with P113A
VL: B1 VL
B5: 10E8v4-H31FLC Fab (Fab, V domains shown)
VH: B1 VH with A112P
VL: B2 VL with H29F

What follows are binders tested against T117-F MPER scaffold (assay: BLI).
In the case of B1, the koff is reported as 0.021 s⁻¹. B2 showed a koff of 0.00137 s⁻¹. B3 gave a koff of 0.0314 s⁻¹. B4 was tested, and the koff was 0.0583 s⁻¹. B5 was tested, and the koff was 0.0364 s⁻¹.

Target: T117-F MPER scaffold
Assay: BLI
Remark: another data set of the same source
In the case of B1, the Kd is reported as 103 nM. With B2 the Kd was 9.4 nM. B3 gave a Kd of 171 nM. For B4, the Kd was 2750 nM. B5 gave a Kd of 1460 nM.

From paper PMC8293163 (2021)
